In patent US20200188539A1 (CURATORS OF THE UNIVERSITY OF MISSOURI, published 2020):
Square brackets hold non-standard residues; d marks the D form. * marks the point of attachment. DUPA = PSMA-binding small-molecule urea, O=C(O)CC[C@H](NC(=O)N[C@@H](CCC(=O)*)C(=O)O)C(=O)O; DOTA = O=C(O)CN1CCN(CC(=O)O)CCN(CC(=O)*)CCN(CC(=O)O)CC1; Sta = CC(C)C[C@H](N)[C@@H](O)CC(=O)O; 4Abz = Nc1ccc(C(=O)O)cc1; Ahx = NCCCCCC(=O)O; Ava = NCCCCC(=O)O

Tests used:
[1] = target: prostate specific membrane antigen (human (human prostate LNCaP cells), UniProt Q04609 1-750); assay: cell-based or functional assay
Chain of prostate specific membrane antigen (Q04609 whole entry): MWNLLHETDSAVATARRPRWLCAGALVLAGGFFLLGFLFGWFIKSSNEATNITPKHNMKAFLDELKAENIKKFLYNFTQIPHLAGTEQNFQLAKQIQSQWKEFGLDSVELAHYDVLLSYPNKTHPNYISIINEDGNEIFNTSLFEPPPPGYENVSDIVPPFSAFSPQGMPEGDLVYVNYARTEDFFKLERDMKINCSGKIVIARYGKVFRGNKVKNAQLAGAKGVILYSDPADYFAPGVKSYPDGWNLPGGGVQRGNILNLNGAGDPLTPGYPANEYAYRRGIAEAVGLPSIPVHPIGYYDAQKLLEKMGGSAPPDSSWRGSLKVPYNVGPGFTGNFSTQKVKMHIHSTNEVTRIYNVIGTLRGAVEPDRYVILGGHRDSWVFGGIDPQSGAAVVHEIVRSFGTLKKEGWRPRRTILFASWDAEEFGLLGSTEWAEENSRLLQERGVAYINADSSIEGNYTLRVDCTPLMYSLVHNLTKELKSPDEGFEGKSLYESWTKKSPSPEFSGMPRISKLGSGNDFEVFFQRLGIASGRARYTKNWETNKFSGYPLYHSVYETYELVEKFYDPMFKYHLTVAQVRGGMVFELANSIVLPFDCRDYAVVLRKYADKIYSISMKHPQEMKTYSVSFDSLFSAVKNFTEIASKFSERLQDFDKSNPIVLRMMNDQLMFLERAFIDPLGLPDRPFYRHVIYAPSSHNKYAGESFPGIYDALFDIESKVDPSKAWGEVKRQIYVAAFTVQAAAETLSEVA

[2] = target: T1, gastrin-releasing peptide receptor (human (human prostate PC-3 cells), UniProt P30550 1-384); assay: competitive displacement of 125I-(Tyr4)-BBN on GRPR-positive PC-3 cells
T1 construct: whole, on cells; Endogenous receptor on PC-3 cells; also called GRPR; GRPr
T1 sequence (P30550 whole entry): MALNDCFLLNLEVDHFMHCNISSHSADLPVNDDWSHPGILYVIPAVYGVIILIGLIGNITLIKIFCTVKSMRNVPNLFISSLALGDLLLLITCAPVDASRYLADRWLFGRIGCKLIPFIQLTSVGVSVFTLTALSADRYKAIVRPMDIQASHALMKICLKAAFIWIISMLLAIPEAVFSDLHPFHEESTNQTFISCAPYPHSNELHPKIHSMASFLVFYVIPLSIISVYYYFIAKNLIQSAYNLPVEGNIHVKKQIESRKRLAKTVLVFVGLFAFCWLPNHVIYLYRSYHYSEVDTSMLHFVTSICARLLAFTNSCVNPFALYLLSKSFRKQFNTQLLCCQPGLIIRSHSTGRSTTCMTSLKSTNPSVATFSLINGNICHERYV
Description: (§1) (NAAG) as the radioligands. For the GRPR-positive assay, 3×10⁴ PC-3 cells (in D-MEM/F-12 K media containing 0.01 M MEM and 2% BSA, pH=5.5) were incubated with 20,000 counts per minute of [¹²⁵I-(Tyr4)-BBN] and increasing concentrations (1×10⁻¹³-1×10⁻⁵ M) of the metallated targeting vector (1 h, 37° C., 5% CO₂-enriched atmosphere). After incubation, the reaction medium was aspirated and the cells were rinsed three times with cold media. Cell-associated radioactivity was determined using a Packard Riastar gamma counter. The percent of bound radioligand was plotted against the increasing concentrations of the metallated conjugate to determine the IC₅₀ value. IC₅₀ values were determined by curve fitting using Prism Software (version 6.0). For the PSMA-positive assay, the binding affinity was measured using the N-acetylated-α-linked acidic dipeptidase (NAALADase) assay. […] (increasing concentrations 1×10⁻¹³-1×10⁻⁵ M) in 50 μL of Tris-HCl buffer (50 mM, pH=7.4) were incubated with LNCaP tissue culture homogenized cell membranes for a period of 45 min. Then, [N-acetyl aspartyl ³H-glutamate] was added to the reaction mixture and the solution was allowed to incubate for an additional 15 min at 37° C. The enzymatic reaction was stopped by addition of 50 μL of cold sodium phosphate buffer (0.1 M, pH=7.4). [N-acetyl aspartyl ³H-glutamate] and [³H-glutamate] were resolved by cation exchange chromatography using AG 50 W-X8 columns (200-400 mesh). Columns were pre-equilibrated with 0.2 M HCl prior to loading of the reaction mixture. Fractions containing [³H-glutamate] were eluted using 6 mL of 2 M HCl. Scintillation cocktail was added to each fraction and the amount of radioactivity in each was determined by liquid scintillation counting. The percent of bound radioligand was plotted against the increasing concentrations of the conjugate to determine the IC₅₀ value. IC₅₀ values were determined by curve fitting using Prism Software (version 6.0).

[3] = target: T1, gastrin-releasing peptide receptor; assay: competitive displacement of 125I-[Tyr4]BBN on human prostate PC-3 cells (FIG. 2)
Description: as §1, with “6.0).” for “6.0). For the PSMA-positive assay, the binding affinity was measured using the N-acetylated-α-linked acidic dipeptidase (NAALADase) assay.”, “[N-acetyl aspartyl ³H-glutamate] and [³H-glutamate] were resolved by cation exchange chromatography using AG 50 W-X8 columns (200-400 mesh). Columns were pre-equilibrated with 0.2 M HCl prior to loading of the reaction mixture. Fractions containing [³H-glutamate] were eluted using 6 mL of 2 M HCl.” left out, “The percent of bound radioligand was plotted against the increasing concentrations of the conjugate to determine the IC₅₀ value.” left out

Row | IC50 LNCaP cells (NAALADase assay, [N-acetyl aspartyl 3H-glutamate] substrate, LNCaP homogenized cell membranes) [1] [nM] | IC50 [2] [nM] | IC50 [3] [nM] | Binder
1 | 14.9 | – | – | {DUPA-Ahx}-K(DOTA)[4Abz][dF]QWAVGH[Sta]L-NH2 (also: DOTA complexed with natural indium) [[DUPA-6-Ahx-[^natIn-DOTA-AMBA-RM2]]
2 | – | 3.85 | 3.99 | {DUPA-Ahx}-K(DOTA)[Ahx][dF]QWAVGH[Sta]L-NH2 (SMILES CC(C)C[C@H](NC(=O)C[C@H](O)[C@H](CC(C)C)NC(=O)[C@H](Cc1c[nH]cn1)NC(=O)CNC(=O)[C@@H](NC(=O)[C@H](C)NC(=O)[C@H](Cc1c[nH]c2ccccc12)NC(=O)[C@H](CCC(N)=O)NC(=O)[C@@H](Cc1ccccc1)NC(=O)CCCCCNC(=O)[C@H](CCCCNC(=O)CN1CCN(CC(=O)O)CCN(CC(=O)O)CCN(CC(=O)O)CC1)NC(=O)CCCCCNC(=O)CC[C@H](NC(=O)N[C@@H](CCC(=O)O)C(=O)O)C(=O)O)C(C)C)C(N)=O, Unmetallated bivalent conjugate; also called [DUPA-6-Ahx-[DOTA]-6-Ahx-RM2]; [DUPA-6-Ahx-Lys[DOTA]-X-RM2], X=6-Ahx) [[DUPA-6-Ahx-Lys(DOTA)-6-Ahx-RM2]]
3 | – | 5.27 | – | {DUPA-Ahx}-K(DOTA)[4Abz][dF]QWAVGH[Sta]L-NH2 (Unmetallated bivalent conjugate; also called [DUPA-6-Ahx-Lys[DOTA]-X-RM2], X=AMBA) [[DUPA-6-Ahx-[DOTA]-AMBA-RM2]]
4 | 11.2 | 5.14 | – | {DUPA-Ahx}-K(DOTA)[Ava][dF]QWAVGH[Sta]L-NH2 (Unmetallated bivalent conjugate; also called [DUPA-6-Ahx-Lys[DOTA]-X-RM2], X=5-Ava; [DUPA-6-Ahx-Lys(DOTA)-X-RM2] formula (I), X=5-aminovaleric acid) [[DUPA-6-Ahx-[DOTA]-5-Ava-RM2]]
5 | 14.4 | – | – | {DUPA-Ahx}-K(DOTA)[Ava][dF]QWAVGH[Sta]L-NH2 (also: DOTA complexed with natural indium) [[DUPA-6-Ahx-[^natIn-DOTA]-5-Ava- RM2]]
